Several values for one entry are separate records, joined by “and”; a condition that tells them apart may be missing. Identical values can stand only once.
Target: Mayaro virus (MAYV) capsid (C) protein, strain IQT4235 (Mayaro virus (strain IQT4235))
Assay: cryo-EM structure; purified mature infectious MAYV virions (5x10^10 PFU/mL, from Vero CCL81 cells) vitrified on Quantifoil R2/2 grids; 300 kV Titan Krios, single particle analysis with icosahedral symmetry, global resolution 4.4 Å; atomic model from a homology model on CHIKV (PDB 6NK5) refined into the map

For “Mayaro virus (MAYV) capsid (C) protein, strain IQT4235 (natural protein)”, the stoichiometry N was 6 and 5.
